Data published in article PMC9851154.

What was measured:
[1] = substrate: CC=Cc1ccc(O)c(OC)c1; assay: purified protein; assay type: biochemical, Novosphingobium aromaticivorans; settings: apparent, 0.1 M Tris-HCl pH 9, room temperature
[2] = substrate: Oc1ccc(/C=C/c2cc(O)cc(O)c2)cc1; assay: purified protein; assay type: biochemical, Novosphingobium aromaticivorans; settings: apparent, 0.1 M Tris-HCl pH 9, room temperature

Protein | Km [1] [µM] | kcat [1] [s⁻¹] | kcat/Km [1] [M⁻¹ s⁻¹] | Km [2] [µM] | kcat [2] [s⁻¹] | kcat/Km [2] [M⁻¹ s⁻¹]
NOV1 (Novosphingobium aromaticivorans DSM 12444) (protein) MAQFPNTPSFTGFNTPSRIEADIADLAHEGTIPQGLNGAFYRVQPDPQFPPRLDDDIAFNGDGMITRFHIHDGQVDFRQRWAKTDKWKLENAAGKALFGAYRNPLTDDEAVKGEIRSTANTNAFVFGGKLWAMKEDSPALVMDPATMETFGFEKFGGKMTGQTFTAHPKVDPKTGNMVAIGYAASGLCTDDVTYMEVSPEGELVREVWFKVPYYCMMHDFGITEDYLVLHIVPSIGSWERLEQGKPHFGFDTTMPVHLGIIPRRDGVRQEDIRWFTRDNCFASHVLNAWQEGTKIHFVTCEAKNNMFPFFPDVHGAPFNGMEAMSHPTDWVVDMASNGEDFAGIVKLSDTAAEFPRIDDRFTGQKTRHGWFLEMDMKRPVELRGGSAGGLLMNCLFHKDFETGREQHWWCGPVSSLQEPCFVPRAKDAPEGDGWIVQVCNRLEEQRSDLLIFDALDIEKGPVATVNIPIRLRFGLHGNWANADEIGLAEKVLAA | 600 ± 100 | 7.3 ± 0.2 | 12200 ± 2000 | 60 ± 10 | 0.38 ± 0.02 | 6300 ± 200
NOV1 (Novosphingobium aromaticivorans DSM 12444; S283F) (protein) MAQFPNTPSFTGFNTPSRIEADIADLAHEGTIPQGLNGAFYRVQPDPQFPPRLDDDIAFNGDGMITRFHIHDGQVDFRQRWAKTDKWKLENAAGKALFGAYRNPLTDDEAVKGEIRSTANTNAFVFGGKLWAMKEDSPALVMDPATMETFGFEKFGGKMTGQTFTAHPKVDPKTGNMVAIGYAASGLCTDDVTYMEVSPEGELVREVWFKVPYYCMMHDFGITEDYLVLHIVPSIGSWERLEQGKPHFGFDTTMPVHLGIIPRRDGVRQEDIRWFTRDNCFAFHVLNAWQEGTKIHFVTCEAKNNMFPFFPDVHGAPFNGMEAMSHPTDWVVDMASNGEDFAGIVKLSDTAAEFPRIDDRFTGQKTRHGWFLEMDMKRPVELRGGSAGGLLMNCLFHKDFETGREQHWWCGPVSSLQEPCFVPRAKDAPEGDGWIVQVCNRLEEQRSDLLIFDALDIEKGPVATVNIPIRLRFGLHGNWANADEIGLAEKVLAA | 800 ± 100 | 14.5 ± 0.8 | 18100 ± 4000 | 227 ± 2 | 0.078 ± 0.004 | 340 ± 20
